According to patent publication EP1834963A1, “Di-polymer protein conjugates and processes for their preparation” (priority 2006, dated 2007):

B1: Di-PEG 12kDa G-CSF mixture (conjugate, UniProt P09919 31-207, looked up)
Granulocyte …: TPLGPASSLPQSFLLKCLEQVRKIQGDGAALQEKLVSECATYKLCHPEELVLLGHSLGIPWAPLSSCPSQALQLAGCLSQLHSGLFLYQGLLQALEGISPELGPTLDTLQLDVADFATTIWQQMEELGMAPALQPTQGAMPAFASAFQRRAGGVLVASHLQSFLEVSYRVLRHLAQP
modifications: two 12 kDa PEG chains
B2: Di'-PEG 20kDa G-CSF isoform (conjugate, UniProt P09919 31-207, looked up)
Granulocyte …: B1 Granulocyte …
modifications: two 20 kDa PEG chains
B3: Neulasta (conjugate, UniProt P09919 31-207, looked up)
Granulocyte …: B1 Granulocyte …
modifications: pegfilgrastim; N-terminal Met, 20 kDa PEG

Tests used:
[1] = in vivo clearance (pharmacokinetic) studies in sham-operated and nephrectomised rats; details: intravenous 0.005 mg/kg; for clearance mechanism: sham-operated and nephrectomised rats, inferred from similar kinetics
Method: The clearance mechanism of (i) the Di-PEG G-CSF product mixture (43 kDa total MW) comprising di-PEG 12kDa G-CSF and […] isoforms according to example A6 and of (ii) the single isoform, Di'-PEG 20kDa G-CSF conjugate (59 kDa total MW) according to example B, was tested in vivo in comparison to commercially available mono-pegylated G-CSF (Neulasta®)
The in vivo studies were open randomized, parallel- grouped clearance studies of Neulasta® with either the Di-PEG G-CSF product mixture or the single di'-PEG 20kDa G-CSF conjugate isoform in sham-operated (control group) and nephrectomised rats. The studies were carried out by intravenous injection of 0.005 mg/kg of the conjugate to male rats. Four animals per group per time point were subjected to bleeding. The remaining G-CSF plasma concentration was determined in the serum samples and relevant pharmacokinetic data such as the plasma elimination half-life were calculated.

male rats [2] = experiment: in vivo single dose biocomparability study of di-PEG G-CSF product with Neupogen and Neulasta (WBC and neutrophil counts); details: single subcutaneous injection 0.1 mg/kg
Method: The di-PEG G-CSF product comprising a mixture of di- and di' PEG G-CSF conjugate isoforms according to the invention was tested in vivo, to show the improved activity versus unmodified G-CSF (Neupogen®) and to compare its biological activity with commercially available mono-pegylated G-CSF (Neulasta®).
The in vivo study was an open randomized, parallel- grouped single dose biocomparability study of Neupogen® and Neulasta® with the di-PEG G-CSF product. It was carried out by subcutaneously injecting 0.1 mg/kg to male rats. Six animals per group per time point were subjected to bleeding. Serum samples were subjected to a complete blood count on the same day that the samples were collected. The average white blood cell counts and neutrophil counts were calculated.

male rats [3] = experiment: in vivo single dose biocomparability study of Di'-PEG 20kDa G-CSF isoform with Neupogen and Neulasta (WBC and neutrophil counts); details: single subcutaneous injection 0.1 mg/kg; for average white blood cell counts (WBC) and WBC response: Figure 14; for average neutrophil counts and neutrophil response: Figure 15
Method: For testing the biological activity of the Di'-PEG 20kDa G-CSF conjugate isoform in vivo, the single isoform was highly purified by preparative cation exchange chromatography. The defined product contained at least 95% di'-PEG G-CSF conjugate isoform as described in example A 6, paragraph d)ii). The in vivo study was an open randomized, parallel- grouped single dose biocomparability study of Neupogen® and Neulasta® with the single di'-PEG G-CSF conjugate isoform. It was carried out by subcutaneously injecting 0.1 mg/kg to male rats. Six animals per group per time point were subjected to bleeding. Serum samples were subjected to a complete blood count on the same day that the samples were collected. The average white blood cell counts and neutrophil counts were calculated.

[4] = NE - nephrectomised rats, PK study Neulasta vs Di-PEG 12kDa G-CSF mixture
[5] = SH - sham operated rats, PK study Neulasta vs Di-PEG 12kDa G-CSF mixture
[6] = compared to unmodified G-CSF (Neupogen®)
[7] = NE - nephrectomised rats, PK study Neulasta vs Di'-PEG 20kDa G-CSF isoform
[8] = SH - sham operated rats, PK study Neulasta vs Di'-PEG 20kDa G-CSF isoform

| Molecule | Elimination half-life [1, 4] [h] | Elimination half-life [1, 5] [h] | clearance mechanism [1] | average white blood cell counts (WBC) (male rats [2]; compared to Neulasta®, Figure 8) | average neutrophil counts (male rats [2]; compared to Neulasta®, Figure 9) | average white blood cell counts (WBC) and WBC response (male rats [2]; compared to unmodified G-CSF (Neupogen®), Figure 8) | average neutrophil counts and neutrophil response (male rats [2]; compared to unmodified G-CSF (Neupogen®), Figure 9) | average white blood cell counts (WBC) and WBC response (male rats [3]; compared to Neulasta®) | average neutrophil counts and neutrophil response (male rats [3]; compared to Neulasta®) | average white blood cell counts (WBC) and WBC response (male rats [3]; [6]) | average neutrophil counts and neutrophil response (male rats [3]; [6]) | Elimination half-life [1, 7] [h] | Elimination half-life [1, 8] [h] |
| --- | --- | --- | --- | --- | --- | --- | --- | --- | --- | --- | --- | --- | --- |
| B1 | 3.4 | 2.9 | predominantly cleared by Neutrophil Receptor-mediated clearance | at least biosimilar, perhaps potentially better, because of slightly higher maximum WBC and neutrophil counts | at least biosimilar, perhaps potentially better, because of slightly higher maximum WBC and neutrophil counts | higher WBC and neutrophil counts and longer sustained WBC and neutrophil response | higher WBC and neutrophil counts and longer sustained WBC and neutrophil response |  |  |  |  |  |  |
| B2 |  |  | predominantly cleared by Neutrophil Receptor-mediated clearance |  |  |  |  | bioimproved because of higher maximum WBC and neutrophil counts and its sustained WBC and neutrophil response | bioimproved because of higher maximum WBC and neutrophil counts and its sustained WBC and neutrophil response | i) higher WBC and neutrophil counts and ii) showed a sustained WBC and neutrophil response | i) higher WBC and neutrophil counts and ii) showed a sustained WBC and neutrophil response | 3.7 | 3.3 |
| B3 | 2.5 | 1.9 | predominantly cleared by Neutrophil Receptor-mediated clearance |  |  |  |  |  |  |  |  | 2.1 | 1.9 |
